Reference: article PMC10283294, “Chromosome-level genome assembly of Murraya paniculata sheds light on biosynthesis of floral volatiles” (BMC Biology, 2023)
Residue numbers refer to the chain shown, from its start.

T1: Me2G_2382 (PAAS) (Murraya paniculata, UniProt Z9M7G4IQ32)
T1 sequence (Z9M7G4IQ32 1-505): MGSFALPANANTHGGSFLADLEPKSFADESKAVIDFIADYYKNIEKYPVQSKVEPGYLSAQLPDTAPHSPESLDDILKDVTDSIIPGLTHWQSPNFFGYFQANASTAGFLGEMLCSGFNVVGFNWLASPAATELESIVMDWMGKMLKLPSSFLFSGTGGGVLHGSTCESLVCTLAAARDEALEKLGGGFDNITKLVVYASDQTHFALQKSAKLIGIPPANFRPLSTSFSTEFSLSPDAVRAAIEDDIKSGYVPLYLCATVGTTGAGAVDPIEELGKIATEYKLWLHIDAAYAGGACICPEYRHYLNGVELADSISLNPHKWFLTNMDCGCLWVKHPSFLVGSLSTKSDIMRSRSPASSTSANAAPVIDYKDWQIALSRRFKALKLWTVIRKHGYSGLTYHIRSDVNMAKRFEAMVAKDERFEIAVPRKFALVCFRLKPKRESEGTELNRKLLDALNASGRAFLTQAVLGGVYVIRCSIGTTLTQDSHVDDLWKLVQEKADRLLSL

T2: Me3G_1222 (PAAS) (Murraya paniculata, UniProt Z9VGT8ZCM8)
T2 sequence (Z9VGT8ZCM8 1-380): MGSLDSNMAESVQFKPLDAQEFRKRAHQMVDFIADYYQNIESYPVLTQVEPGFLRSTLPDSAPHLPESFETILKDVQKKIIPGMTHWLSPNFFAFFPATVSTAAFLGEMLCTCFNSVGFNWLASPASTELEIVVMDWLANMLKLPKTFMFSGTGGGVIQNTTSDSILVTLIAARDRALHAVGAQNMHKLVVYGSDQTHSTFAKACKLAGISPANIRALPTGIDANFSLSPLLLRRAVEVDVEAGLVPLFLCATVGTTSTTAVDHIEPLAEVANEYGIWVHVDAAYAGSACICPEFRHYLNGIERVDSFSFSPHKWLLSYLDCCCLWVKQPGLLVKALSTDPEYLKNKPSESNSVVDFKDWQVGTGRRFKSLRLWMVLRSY

B1: Me3G_0317 (PAAS) (Murraya paniculata) (protein)
chain: MGSLTSDLELEYNSNSSINLLDSEEFRRQGHMFVDFMAEYYKTIDKYPVRSQVEPGYLKKRLPESAPYSPESVETILEDVQEHIVPGITHWQSPNYFAYFPATSSVPGILGEMLSSGFNVVGMDWISSPAAVELENIVMDWLGQMLNLPKSFLFSGNGGGVIQGTTCEALLCTLTAARDRVLKKIGRENISKLVVYSSDQTHCAFQKAAQIVGIDRKNIRAIKTTKSSSYGLSAESVLSQINLDVEAGLIPLFLCATVGTTAITAVDPLRPLCDVAKQFGMWVHVDAAYAGSACICPEFRHFIDGVECVDSFSFNPHKWLFTSLDCCCLWVKDPSCLLSTLSTNPHYLKNEATDQEPKGQEVGYKDWQITLCRRFRSLKLWLVIRNFGVANLRNFIRSHVGMAKLFERLVHSDKRFEVAFPRNFSLVCFRVTPSAVMDKLRTKYKNGTHDQYRQLSEEERTNEFNRELLESINVSGKVFMTHAIVGGIYVLRFAAGNSMTMESHVREAWTVVQEHLEAF
B2: Me2G_2379 (PAAS) (Murraya paniculata) (protein)
chain: MGSFALPPNGNTHGRSFSADLEPKSFADEAKAVIDFIADYYKNIEKYPVQSKVEPGYLSAQLPDTAPHSPESLDDILKDVTDSIIPGLTHWQSPNFFGYFQANASTAGFLGEMLCSGFNVVGFNWLASPAATELESIVMDWMGKMLKLPSSFLFSGTGGGVLHGSTCESLVCTLAAARDEVLEKLGGGFDNITKLVVYASDQTHFALQKSAKLIGIPPANFRPLSTSFSTEFSLSPDAVRAAIEDDIKSGYVPLYLCATVGTTGAGAVDPIEELGKIATEYKLWLHIDAAYAGGACICPEYRHYLNGVELADSISLNPHKWFLTNMDCGCLWVKHPSFLVGSLSTKSDIMRSRSPASSTSANAAPVIDYKDWQIALSRRFKALKLWTVIRKHGYSGLTYHIRSDVNMAKRFEAMVAKDERFEIAVPRKFALVCFRLKPKRESEGTELNRKLLDALNASGRAFLTQAVLGGVYVIRCSIGTTLTQDSHVDDLWKLVQEKADRLLSLQEPEHARC
B3: Me2G_2381 (PAAS) (Murraya paniculata) (protein)
chain: B2 chain with P8A, G10A, R15G, S360R, R512G
B4: Me1G_2960 (PAAS) (Murraya paniculata) (protein)
chain: MDAEQLRENAHKMVDFIADYYKSIENFPVLSQVQPGYLHNLIPDSAPNHPESLQNVLDDIQEKILPGVTHWQSPNYFAYFPSNSSVAGFLGEMLSAGLNIVGFSWITSPAATELEMIVLDWLAKLLKLPEDFLSTGQGGGVIQGTASEAVLVVLLAARDEALKRVGKNSLEKLVVYASDQTHSALQKACQIGGIHRQNFRVLKTDSSTNYSLSPDSLAEAISRDLTMGLIPFFLGATVGTTSSTAVDPLLALGNIAKSNGMWFHVDAAYAGSACICPEYRQYIDGVEKADSFNMNAHKWFLTNFDCSALWVKDRNTLIQSLSTNPEFLKNKVSFYFSVHNMFLYYFLAQLSRPKSKSHLFVFVHINCIMNCPFNNVMLTVVELSTLSGENGNILASQANMVVDYKDWQIPLGRRFRSLKLWMVLRLYGLENLQGYIRNHIQLAKHFEGLVAQDSRFEVVTPRIFSLVCFRLLPPHNDEDHGNKLNHNLLDAVNSTGKIFISHTVLSGKYILRFAVGAPLTEGRHVNAAWEVVRDRASALLARLSTE

Key:
Assay in all cases: GC-MS of phenylacetaldehyde, Lineweaver-Burk
[1] = biological target: T1, Me2G_2382 (PAAS); type: biochemical; conditions: pH 8.5 Tris-HCl, 28 °C, 0.2 mM PLP, 0.1 mM EDTA
[2] = test system: Me4G_0535 (PAAS); type: biochemical, Murraya paniculata; conditions: pH 8.5 Tris-HCl, 28 °C, 0.2 mM PLP, 0.1 mM EDTA; read-out: apparent Km
[3] = test system: Me3G_2284 (PAAS); type: biochemical, Murraya paniculata; conditions: pH 8.5 Tris-HCl, 28 °C, 0.2 mM PLP, 0.1 mM EDTA; read-out: apparent Km
[4] = test system: Me5G_1302 (PAAS); type: biochemical, Murraya paniculata; conditions: pH 8.5 Tris-HCl, 28 °C, 0.2 mM PLP, 0.1 mM EDTA; read-out: apparent Km
[5] = biological target: T2, Me3G_1222 (PAAS); type: biochemical; conditions: pH 8.5 Tris-HCl, 28 °C, 0.2 mM PLP, 0.1 mM EDTA; read-out: apparent Km
[6] = substrate: N[C@@H](Cc1ccccc1)C(=O)O; type: biochemical, Murraya paniculata; conditions: pH 8.5 Tris-HCl, 28 °C, 0.2 mM PLP, 0.1 mM EDTA

Molecule	apparent Km [1]	Km [2] [mM]	Km [3] [mM]	Km [4] [mM]	Km [5] [mM]	Km [6] [mM]	kcat/Km [6] [M⁻¹ s⁻¹]
N[C@@H](Cc1ccccc1)C(=O)O [L-phenylalanine]	kinetic characterisation of purified recombinant PAAS revealed an apparent Km for L-phenylalanine (L-Phe)	2 ± 0.54	36.6 ± 4.35	9.89 ± 1.77	9.99 ± 0.46		
B1						2.7821 ± 0.73	45.2
B2						3.7265 ± 0.83	100
B3						1.7943 ± 0.60	62.9
B4						1.7851 ± 0.66	55.9
